Experimental data published in patent US20180244757A1.

B1: MAb 2BB8 (antibody, V domains shown)
VH: QAYLQQSGAELVRSGASLKMSCKASGYTFTSYNLHWVKQTPGQGLEWIGYIFPGNGGTAYNEKFKGKATLTADTSSSTAYMQISSLTSEDSAVYFCARGGPYYALDYWGQGTSVTVSS
VL: DIQMTQSPASLSASVGETVTITCRTSGNIHTYLAWYQHKQGKSPQLLVYYAKTLADGVPSRFSGSGSGTQYSLKINSLQPEDFGSYYCQHFWSNPRTFGGGTKLEIK
B2: MAb 2AF11 (antibody, V domains shown)
VH: QVTLKESGPGILQPSQTLSLTCSFSGFSLSTSGMSVGWIRQPSGKGLEWLAHIWWNDDMYYNPALESRLTISKDTSNNQVFLKIASVVTADTATYYCARIALTGPYWYFDVWGAGTTVTVSS
VL: DIVMTQTPASLSASVGETVTITCRASENIYSYLAWYQQKQGKSPQLLVNNAKTLAEGVPSRFSGSGSGTQFSLKINSLQPEDCGNYYCQHHYGTPLTFGAGTKLELK
B3: MAb 2AG9 (antibody, V domains shown)
VH: ELARPGASVKLSCKASGYTFTNYYMQWIKQRPGQGLEWIGAVYPGDGDTRYTQKFKGKASLTADKSSTTAYMQLSSLASEDSAVYYCTRGDYEGTWFTYWGQGTLVTVSA
VL: DIVMTQTTAIMSASPGEKVTMTCSASSSVSYMHWYQQKSGTSPKRWMYDTSKLASGVPGRFSGSGSGTTYSLTISTMEAEDAATYYCQQWSSNPPTFGGGTKLEIK
B4: MAb 2AG8 (antibody, V domains shown)
VH: VKLEESGAELVRSGASLKMSCKASGYTFTSYNLHWVKQTPGQGLEWIGYIFPGNGGTAYNEKFKGKATLTADTSSSTAYMQISSLTSEDSAVYFCARGGPYYALDYWGQGTSVTVSS
VL: DIVMTQSPASLSASVGETVTITCRTSGNIHTYLAWYQHKQGKSPQLLVYYAKTLADGVPSRFSGSGSGTQYSLKINSLQPEDFGSYYCQHFWSNPRTFGGGTKLEIKR
B5: MAb 2BA2 (antibody, V domains shown)
VH: VQLQESGPGLVKPSQPLSLTCSVTGYSITSAYYWNWIRQFPGNKLEWMGYITYDGTNNYNPSLKNRISITRDTSKNQFFLKLNSVTTEDTASYYCARDVATVGAMDYWGQGTSVTVSS
VL: SIVMTQTPKFLLVSAGDRVTITCKASQSVSNDVAWYQQKPGQSPKLLIYFASNRYTGVPDRFTGSGYGTDFTFTISTVLAEDLALYFCQQDYSSPRTFGGGTKLEVK
B6: MAb 2BB5 (antibody, V domains shown)
VH: EVQLEESGGGLVQPGGSMKLSCVASGFTFSNYWMNWVRQSPEKGLEWVAEVRLNSNNYATHYAESVKGRFTISRDDSKSSVYLQMSNLRSEDTGIYYCSTDYYGYAMDYWGQGTSVTVSS
VL: DIVMTQTPSIMSASPGEKVTITCSASSNVNYMHWFQQKPGTSPKLWIYSTSNLASGVPARFSGSGSGTSYSLTISRMEAEDAATYYCQQRSNYPPTFGAGTKLELK
B7: MAb 2BB6 (antibody, V domains shown)
VH: EVQLEESGPDLVKPSQSLSLTCTVTGFSITSGYSWHWIRQFPGNKLEWMGYIHFSGSTNYNPSLKSRISITRDTSKNQFFLQLSSVTTDDTGTYYCARDLTGIDSWGQGTTLTVSS
VL: DIVMTQTPAIMSASPGEKVTISCSASSSVSYMYWFQQKPGSSPKPWIYRTSNLASGVPARFSGSGSGTSYSVTISSMEAEDAATYYCQQYHSYPLTFGAGTKLELK
B8: MAb 2BB7 (antibody, V domains shown)
VH: EVQLQQSGPDLVKPGASMKISCKASGYSFTAYTMNWVKQSHGKNLEWIGLISPYNGGTSYNQKFKGKATLTVDKSSSTAYMELLSLTSEDSAVYYCARQIGPYFDHWGQGTTLTVSS
VL: IVMTQTTPSSMYASLGERVTITCKASQDIKSSFSWFQQKPGKSPKTLIYRASRLVDGVPSRFSGSGSGQDSSLTISSLEYEDMGIYYCLQCDEFPYTFGGGTKLEIK

Target: Heartland virus (HRTV) nucleocapsid (N) protein (Heartland virus (HRTV))
Test: not given

Going from B1 to B2, the ELISA endpoint rises from 0.61 ng/mL to 10000 ng/mL (16000-fold).

Going from B3 to B4, the ELISA endpoint falls from 1.53 ng/mL to 0.381 ng/mL (4-fold).

Compared with B5, B6 is 250-fold lower in ELISA endpoint: 39.1 ng/mL for the first, 0.156 ng/mL for the second.

Compared with B7, B8 is 410-fold lower in ELISA endpoint: 10000 ng/mL for the first, 24.4 ng/mL for the second.

Target: Heartland virus (HRTV) nucleocapsid (N) protein (Heartland virus (HRTV))
Test: ELISA, purified HRTV coated on the plate, MAb titrated

First: B1
Second: B3
The ELISA endpoint titer of the first is 2.5-fold lower: 0.61 ng/mL for the first, 1.53 ng/mL for the second.

First: B4
Second: B5
The ELISA endpoint titer of the first is 100-fold lower: 0.381 ng/mL for the first, 39.1 ng/mL for the second.

First: B6
Second: B8
The ELISA endpoint titer of the first is 160-fold lower: 0.156 ng/mL for the first, 24.4 ng/mL for the second.

Target: SFTSV antigen (SFTSV-infected Vero cells)
Test: IFA on acetone-fixed SFTSV-infected Vero cells, MAb in doubling dilutions

Work on B2 yielded an IFA endpoint titer of 1 µg/mL.
